In patent US20230190879A1 (JIANGSU HENGRUI PHARMACEUTICALS, published 2023):
Where two headings read alike, the source gives them in different places. *1 amine or outer side, *2 acyl side, *3 side chain or, on linkers, in order; H or OH if unused. Where no end group is shown, it is not given here. Side-chain parts run from the residue outwards. [ ]: non-standard residue; d: D form. γGlu = O=C(O)[C@H](CCC(=O)[*:2])N[*:1]; AEEA = NCCOCCOCC(=O)O; Aib = CC(C)(N)C(=O)O

T1: human glucose-dependent insulinotropic polypeptide receptor (GIP receptor) (human, UniProt P48546 22-466)
T1 sequence (looked up): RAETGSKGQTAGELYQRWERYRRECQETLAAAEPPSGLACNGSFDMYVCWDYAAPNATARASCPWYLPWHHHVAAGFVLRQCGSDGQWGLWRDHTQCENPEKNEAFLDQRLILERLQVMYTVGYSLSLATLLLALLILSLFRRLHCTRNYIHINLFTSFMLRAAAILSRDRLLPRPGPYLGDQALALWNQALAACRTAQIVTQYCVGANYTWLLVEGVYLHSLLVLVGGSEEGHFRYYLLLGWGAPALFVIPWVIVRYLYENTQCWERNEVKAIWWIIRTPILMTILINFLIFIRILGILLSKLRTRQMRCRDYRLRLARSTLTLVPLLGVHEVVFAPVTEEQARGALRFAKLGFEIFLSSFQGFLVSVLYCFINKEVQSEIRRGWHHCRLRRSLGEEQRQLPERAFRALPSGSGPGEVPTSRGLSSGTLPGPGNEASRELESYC

B1: compound 17# (peptide)
peptide: Y[Aib]EGTFTSDYSIYK([AEEA-AEEA-γGlu-C20‑OH])ERIAAQEFVNWLLAGGPSSGAPPPS-NH2
B2: compound 9# (peptide)
peptide: Y[Aib]EGTFTSDYSIYLEK([AEEA-AEEA-γGlu-C20‑OH])IAAQEFVNWLIAGGPSSGAPPPS-NH2
B3: compound 18# (peptide)
peptide: Y[Aib]EGTFTSDYSIYK([AEEA-AEEA-γGlu-C20‑OH])EKIAAQEFVNWLLAGGPSSGAPPPS-NH2
B4: compound 7# (peptide)
peptide: Y[Aib]EGTFTSDYSIYK([AEEA-AEEA-γGlu-C20‑OH])DKIAAQEFVNWLLAGGPSSGAPPPS-NH2
B5: compound 15# (peptide)
peptide: Y[Aib]EGTFTSDYSIYK([AEEA-AEEA-γGlu-C20‑OH])ERIAAQEFINWLIAGGPSSGAPPPS-NH2
B6: compound 12# (peptide)
peptide: Y[Aib]EGTFTSDYSIYK([AEEA-AEEA-γGlu-C20‑OH])EKIAAQEFVNWLIAGGPSSGAPPPS-NH2
B7: compound 14# (peptide)
peptide: Y[Aib]EGTFTSDYSIYK([AEEA-AEEA-γGlu-C20‑OH])EKIAAQEFINWLIAGGPSSGAPPPS-NH2
B8: compound 13# (peptide)
peptide: Y[Aib]EGTFTSDYSIYK([AEEA-AEEA-γGlu-C20‑OH])ERIAAQEFVNWLIAGGPSSGAPPPS-NH2
B9: compound 16# (peptide)
peptide: Y[Aib]EGTFTSDYSIYK([AEEA-AEEA-γGlu-C20‑OH])EKIAAQEFINWLLAGGPSSGAPPPS-NH2
B10: compound 10# (peptide)
peptide: Y[Aib]EGTFTSDYSIYLEK([AEEA-AEEA-γGlu-C20‑OH])IAAQEFINWLIAGGPSSGAPPPS-NH2

What was measured:
Assay in all cases: cell-based or functional assay
[1] = target: human glucose-dependent insulinotropic polypeptide receptor (GIP receptor) (human) (UniProt P48546)
[2] = target: human glucagon-like peptide-1 receptor (GLP-1R) (human) (UniProt P43220)
[3] = target: human glucose-dependent insulinotropic polypeptide receptor (GIP receptor) (human) (UniProt P48546); remark: listed apart in the source
[4] = target: human glucagon-like peptide-1 receptor (GLP-1R) (human) (UniProt P43220); remark: listed apart in the source
[5] = target: T1, human glucose-dependent insulinotropic …
[6] = target: T2, human glucagon-like peptide-1 receptor (GLP-1R) (human, UniProt P43220 24-463)
[7] = target: T1, human glucose-dependent insulinotropic …; remark: listed apart in the source
[8] = target: T2, human glucagon-like peptide-1 receptor …; remark: listed apart in the source

T2 sequence (P43220 24-463): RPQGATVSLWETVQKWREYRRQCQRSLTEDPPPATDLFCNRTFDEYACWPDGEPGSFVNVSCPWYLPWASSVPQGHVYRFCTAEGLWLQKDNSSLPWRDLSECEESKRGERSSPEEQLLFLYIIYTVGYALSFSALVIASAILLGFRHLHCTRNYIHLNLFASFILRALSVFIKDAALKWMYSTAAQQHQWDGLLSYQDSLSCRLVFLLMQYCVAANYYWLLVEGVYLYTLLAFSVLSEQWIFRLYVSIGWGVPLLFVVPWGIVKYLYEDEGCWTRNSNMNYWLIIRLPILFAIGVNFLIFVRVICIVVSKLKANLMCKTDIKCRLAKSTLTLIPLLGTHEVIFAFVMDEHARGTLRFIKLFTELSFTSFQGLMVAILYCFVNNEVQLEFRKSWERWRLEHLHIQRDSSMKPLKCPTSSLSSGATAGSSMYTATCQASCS
Chain of human glucagon-like peptide-1 receptor (GLP-1R) (human) (P43220 24-463): as above

| Molecule | Human GIP receptor activity (EC50 nM); cAMP HTRF in CHO-K1 cells transfected with hGIP receptor [5] [nM] | Human GLP-1R activity (EC50 nM); cAMP HTRF in CHO-K1/GLP-1R/CRE-luc cells [6] [nM] | other results |
| --- | --- | --- | --- |
| LY3298176 (peptide) | – | – | Human GIP receptor activity (EC50 nM); cAMP HTRF in CHO-K1 cells transfected with hGIP receptor [1]: 0.056 nM; Human GLP-1R activity (EC50 nM); cAMP HTRF in CHO-K1/GLP-1R/CRE-luc cells [2]: 0.13 nM; Human GIP receptor activity (EC50 nM); cAMP HTRF in CHO-K1 cells transfected with hGIP receptor [3]: 0.031 nM; Human GLP-1R activity (EC50 nM); cAMP HTRF in CHO-K1/GLP-1R/CRE-luc cells [4]: 0.078 nM |
| Natural GIP (from UniProt P09681 52-93) (ligand) | – | – | Human GIP receptor activity (EC50 nM); cAMP HTRF in CHO-K1 cells transfected with hGIP receptor [3]: 0.006 nM |
| B1 | 0.11 | 0.022 | – |
| B2 | 0.04 | 0.049 | – |
| B3 | 0.06 | 0.013 | – |
| B4 | – | – | Human GIP receptor activity (EC50 nM); cAMP HTRF in CHO-K1 cells transfected with hGIP receptor [7]: 0.11 nM; Human GLP-1R activity (EC50 nM); cAMP HTRF in CHO-K1/GLP-1R/CRE-luc cells [8]: 0.021 nM |
| B5 | 0.23 | 0.015 | – |
| B6 | 0.17 | 0.03 | – |
| B7 | 0.13 | 0.013 | – |
| B8 | 0.13 | 0.017 | – |
| B9 | 0.095 | 0.029 | – |
| B10 | 0.056 | 0.065 | – |
